{"source": "paper PMC5874046", "about": "“Interaction of HuDA and PABP at 5'UTR of mouse insulin2 regulates insulin biosynthesis”", "binders": {"B1": {"name": "L2 (ssRNA)", "RNA": "GGGUACAAUCAAAAACCAUCAGCAA"}, "B2": {"name": "Ins2S 5'UTR (S) (structured_RNA)", "RNA": "GGGAGCCCUAAGUGAUCCGCUACAAUCAAAAACCAUCAGCAAGCAGGAAGGUUAUUGUUUCAAC"}, "B3": {"name": "L4 (ssRNA)", "RNA": "GGGUCUUCCAGGUUAUUGUUUCAAC"}, "B4": {"name": "Ins2L 5'UTR (L) (structured_RNA)", "RNA": "GGGAGCCCUAAGUGAUCCGCUACAAUCAAAAACCAUCAGCAAGCAGGAAGCCUAUCUUCCAGGUUAUUGUUUCAAC"}}, "key": {"[1]": {"target": "T1, His-HuD A (mouse, UniProt Q61701 1-385)", "T1 sequence (Q61701 whole entry)": "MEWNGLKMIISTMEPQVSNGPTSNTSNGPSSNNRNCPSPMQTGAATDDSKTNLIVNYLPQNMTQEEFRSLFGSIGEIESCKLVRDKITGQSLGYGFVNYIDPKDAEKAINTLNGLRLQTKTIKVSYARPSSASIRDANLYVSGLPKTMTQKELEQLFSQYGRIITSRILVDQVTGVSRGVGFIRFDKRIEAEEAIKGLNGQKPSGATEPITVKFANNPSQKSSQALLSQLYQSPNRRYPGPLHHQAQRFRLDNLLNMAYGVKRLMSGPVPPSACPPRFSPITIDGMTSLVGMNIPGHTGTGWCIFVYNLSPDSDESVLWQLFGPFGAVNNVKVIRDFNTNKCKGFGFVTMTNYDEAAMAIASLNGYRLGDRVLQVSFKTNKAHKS", "test": "competition; competitor against labeled Ins2L; EMSA: 6% native PAGE, 0.5x TBE, 4°C (binding buffer as in cited work); biotin pull-down: 5 mM Tris pH 7.5, 15 mM KCl, 5 mM MgCl2, 0.25 mM DTT, 10% glycerol, 20", "details": "protein: recombinant, tags: His"}, "[2]": {"target": "T2, His-HuD D (mouse, UniProt Q61701-10 1-371)", "T2 sequence (Q61701 other isoform, or with tags, fused parts or gaps)": "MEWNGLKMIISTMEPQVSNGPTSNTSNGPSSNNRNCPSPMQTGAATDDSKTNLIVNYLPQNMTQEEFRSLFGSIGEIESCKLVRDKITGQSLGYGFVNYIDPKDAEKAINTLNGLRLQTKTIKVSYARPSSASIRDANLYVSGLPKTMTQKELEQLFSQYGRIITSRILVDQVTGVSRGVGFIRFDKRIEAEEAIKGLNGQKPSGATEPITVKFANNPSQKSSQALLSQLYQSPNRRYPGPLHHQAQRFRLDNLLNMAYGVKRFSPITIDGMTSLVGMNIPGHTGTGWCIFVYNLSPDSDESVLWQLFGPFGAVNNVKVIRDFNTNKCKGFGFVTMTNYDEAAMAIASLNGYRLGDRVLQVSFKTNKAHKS", "test": "competition; competitor; EMSA: 6% native PAGE, 0.5x TBE, 4°C (binding buffer as in cited work); biotin pull-down: 5 mM Tris pH 7.5, 15 mM KCl, 5 mM MgCl2, 0.25 mM DTT, 10% glycerol, 20", "details": "protein: recombinant, tags: His"}, "[3]": {"target": "T1, His-HuD A", "test": "competition; competitor against labeled Ins2L; similar to L at low excess, differential at high excess; EMSA: 6% native PAGE, 0.5x TBE, 4°C (binding buffer as in cited work); biotin pull-down: 5 mM Tris pH 7.5, 15 mM KCl, 5 mM MgCl2, 0.25 mM DTT, 10% glycerol, 20", "details": "protein: recombinant; tags: His; m-fold predicted structure"}, "[4]": {"target": "T2, His-HuD D", "test": "competition; competitor; similar to L at low excess, differential at high excess; EMSA: 6% native PAGE, 0.5x TBE, 4°C (binding buffer as in cited work); biotin pull-down: 5 mM Tris pH 7.5, 15 mM KCl, 5 mM MgCl2, 0.25 mM DTT, 10% glycerol, 20", "details": "protein: recombinant; tags: His; m-fold predicted structure"}, "[5]": {"target": "His-HuD B (mouse, UniProt Q61701-4 1-380)", "sequence (Q61701 other isoform, or with tags, fused parts or gaps)": "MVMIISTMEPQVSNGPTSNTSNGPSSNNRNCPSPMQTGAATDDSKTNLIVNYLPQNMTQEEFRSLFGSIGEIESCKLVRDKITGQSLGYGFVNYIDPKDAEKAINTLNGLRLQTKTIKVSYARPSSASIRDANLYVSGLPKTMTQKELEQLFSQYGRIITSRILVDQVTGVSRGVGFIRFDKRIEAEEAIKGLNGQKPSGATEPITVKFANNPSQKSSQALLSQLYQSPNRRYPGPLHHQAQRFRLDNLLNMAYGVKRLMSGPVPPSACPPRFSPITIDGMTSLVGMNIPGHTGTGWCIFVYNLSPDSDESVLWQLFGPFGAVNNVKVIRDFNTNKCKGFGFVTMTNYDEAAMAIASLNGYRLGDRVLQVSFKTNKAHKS", "test": "EMSA; EMSA: 6% native PAGE, 0.5x TBE, 4°C (binding buffer as in cited work); biotin pull-down: 5 mM Tris pH 7.5, 15 mM KCl, 5 mM MgCl2, 0.25 mM DTT, 10% glycerol, 20", "details": "protein: recombinant; tags: His; label: radiolabel (probe); m-fold predicted structure"}, "[6]": {"target": "GST-HuD B (mouse, UniProt Q61701-4 1-380)", "test": "EMSA; EMSA: 6% native PAGE, 0.5x TBE, 4°C (binding buffer as in cited work); biotin pull-down: 5 mM Tris pH 7.5, 15 mM KCl, 5 mM MgCl2, 0.25 mM DTT, 10% glycerol, 20", "details": "protein: recombinant; tags: GST; label: radiolabel (probe); m-fold predicted structure"}, "[7]": {"target": "T2, His-HuD D", "test": "EMSA; EMSA: 6% native PAGE, 0.5x TBE, 4°C (binding buffer as in cited work); biotin pull-down: 5 mM Tris pH 7.5, 15 mM KCl, 5 mM MgCl2, 0.25 mM DTT, 10% glycerol, 20", "details": "protein: recombinant; tags: His; label: radiolabel (probe); m-fold predicted structure"}, "[8]": {"target": "T1, His-HuD A", "test": "EMSA; EMSA: 6% native PAGE, 0.5x TBE, 4°C (binding buffer as in cited work); biotin pull-down: 5 mM Tris pH 7.5, 15 mM KCl, 5 mM MgCl2, 0.25 mM DTT, 10% glycerol, 20", "details": "protein: recombinant; tags: His; label: radiolabel (probe); m-fold predicted structure"}}}
{"binder": "B1", "values": [{"measurement": "binding result", "setting": "[1]; label: radiolabel (probe)", "result": "binds"}, {"measurement": "binding result", "setting": "[2]; label: radiolabel (probe)", "result": "binds"}]}
{"binder": "B2", "values": [{"measurement": "binding result", "setting": "[3]", "result": "binds"}, {"measurement": "binding result", "setting": "[4]", "result": "binds"}]}
{"binder": "B3", "values": [{"measurement": "binding result", "setting": "[1]", "result": "binds"}, {"measurement": "binding result", "setting": "[2]", "result": "binds"}]}
{"binder": "B4", "values": [{"measurement": "binding result", "setting": "[5]", "result": "no binding"}, {"measurement": "binding result", "setting": "[6]", "result": "no binding"}, {"measurement": "binding result", "setting": "[7]", "result": "binds"}, {"measurement": "binding result", "setting": "[8]", "result": "binds"}]}
